According to the DeepSol protein solubility set:

Assay: soluble on expression in E. coli; label from the status in PepcDB or PDB records

Soluble on expression in E. coli, not soluble:
MGSDKIHHHHHHMPYERKIINDPVFGFINIPKGLLYDIVRHPLLQRLTRIKQVGLSSVVYPGAQHTRFQHSLGAFYLMSEAITQLTSKGNFIFDSEAEAVQAAILLHDIGHGPFSHVLEDTIVQGVSHEEISLMLMERMNKEMNGQLSLAIQIFKDEYPKRFLHQLVSGQLDMDRLDYLRRDSFYTGVTEGNIGSARIIKMLDVADDRLVIESKGIYSIENFLTARRLMYWQVYLHKTSVAYERMLISTLLRAKELASQGVELFASPALHFFLYNDINHTEFHNNPDCLENFIQLDDNDIWTALKVWSNHPDKVLSTLSLGMINRNIFKVENSAEPIGEDRIKELTLQISQQLGITLSEANYFVSTPSIEKNMYDPADDSIDIIYKDGTIKNIAEASDMLNISLLSKKVKKYYLCYQRLHR
MLSSTCTAAVRGLSTTAQLSKINNVTIIGAGLMGSGIAQVSANAKLNVTVVDSNQSALEKAQQGIANSLKRVAKKKHADDAAAQTALVSSVLDRIKMSTNVSDSVKDADLVIEAIVENIDIKRKLFAEVEVAAKPTTLITTNTSSLRLADIGLNLKDKSRFGGLHFFNPVPMMKLLEVVRHTETSDATFNQLVDYGKTVGKTTVACKDTPGFIVNRLLVPYMFEALRLYERGDASMEDIDVAMKLGAGYPMGPFELSDYVGLDTCKFIMDGWHAQYPEEVAFTPSPLLNSLVDSGKNGRKSGEGFYKYK
MVIRYDKAFIKDFKETDEGYLTITACPITRPGVFPYRRTDGGLSMEAKLPDELFSKATVLSANAKPMTDDHPTEPVTAANYNKYSKGMTHNDAHVLDNKLLVSFTITDAETIKKINDGKRELSIGFQADVSKETGVYNGMQYDSVQRNMQINHIAIVDEGRAGPEVAIRGDSVAFMIDTKDKQTGGNGMSKLIIDSKEFEVDSIVKAKFESLEAKLDAAEQRKANVEKLEGERDALKAQIDKLNKEIDEAKKKEVTADALDKRVQDRVDLINKAQKFLGDSVDFTGKSDREIKESVIAKTSPDFKGDGKSDDYIAAYFDSAVANVEKKGFTNPAAFNDAKDKDKEAAEDIEKQKNNRLNMNKKEDK
MRILTLGLDGSGEFAFQSHAHTDHFANGRLIFATRPTIFLSHLRNSRYYIPVDFGKKFYIGDFKAKLYPSGHILGSSGIKIWLDEGTLYYTGDVKVKKLRTVERAKLPKADFLIIESTFGLPRFTFPDPRESEKVIIGIVEDLIDRGKVPTFMANPYGKAQEIIKILNVHGYSVSVDREIAKVSKFYMKFGVRLKFEKEGEVKVSSSKGISVSGFGRIKLSNHADFWELLEIVERVNPEKVFTVYGHAEAFAKILNGLGYEAKSIRRNQKLEVWLEHHHHHH
MTVIYQTTITRIGASAIDALSDQMLITFREGAPADLEEYCFIHCHGELKGALHPGLQFSLGQHRYPVTAVGSVAEDNLRELGHVTLRFDGLNEAEFPGTVHVAGPVPDDIAPGSVLKFESVKE
MGSDKIHHHHHHMNNTPANRLQPKHFTLIKAIGDLGQLSLAAGQVSMTQPAASRMLAEIERIVGAAVFLRTPKGMEATEVGAALVRRSEILLQEMREAMREVDAIKRGASGTVSVGAVTGGALGYIVPAISTLKAEARTADIYVDVAPSGTLISNLVSGQFDFVLGRIPVGVDARQFHIRHARTEEVDLIVHQSHPLANSTDLRMTDLLHFPWVMQGPGAPVRQAVENAFIDAGTTLPVDVVNTTSLLVMIAMIAASNAITPLSREVSDLLCRQTTGAGLCRLKIRRPIIVLPYHLISMKNRHMSTLAARLQDLVLQEFITR
MGSDKIHHHHHHMEGKALRQGSIAGKGAPRNTASLIQYAQDHFDAAHFQGLMAIYGRPLADRAVALTHDRGRRVVDFVRCSYLGLDNHPQIVAGAVEAMKEYGTLHWSCARTRLNFSILGDLEAALSELFDARVITYTTVLAANMGALPLIASGHLTGGVKPLMVFDRLAHATLAFHKGTIAAETRVETIAHNDLEALEMLCRTNGSVAFVCDGVYSMGGSADLARLRRLQERYGLFLYIDDAHGVSIFGKHGEGFARSQMSGPLGERTIVAASLGKGFGASGGLIMLGTARQEELFRRFAVAHAFSASLNVAAIGAARASQQLHLTEELTELQQRLRSRTALFDSLVPTEQQGSPLPIRTVEIGDEMTAIGAARALLDRGFYTSAIFFPTVARGRAGLRLCPTAGHSEDDIRGLGIAIQDVLKEISGR

Soluble on expression in E. coli, soluble:
GPVDMTERLKVMTIFGTRPEAIKMAPLVLELQKHPEKIESIVTVTAQHRQMLDQVLSIFGITPDFDLNIMKDRQTLIDITTRGLEGLDKVMKEAKPDIVLVHGDTTTTFIASLAAFYNQIPVGHVEAGLRTWDKYSPYPEEMNRQLTGVMADLHFSPTAKSATNLQKENKDESRIFITGNTAIDALKTTVKETYSHPVLEKLGNNRLVLMTAHRRENLGEPMRNMFRAIKRLVDKHEDVQVVYPVHMNPVVRETANDILGDYGRIHLIEPLDVIDFHNVAARSYLMLTDSGGVQEEAPSLGVPVLVLRDTTERPEGIEAGTLKLAGTDEETIFSLADELLSDKEAHDKMSKASNPYGDGRASERIVEAILKHFNK
MSLYIKVLSVSELNNYIKRVVDSDYILSNAQVKGEISNFKFHSSGHVYFSLKDEGGKINCIMFRSNAEKLKFIPENGMKVNVKGRVSVYVKDGAYQLYCTEITPEGRGELYEAFEKLKEKLLNEGMFSEEHKRNIPKYPKMIGVITSPTGAAIRDIINVATRRNKSVDMIICPTLVQGVNAPGELIKALDYLNNREDIDTIILARGGGSIEELWAFNDEKLAYAVYNSKKPVVTGVGHETDFTIVDFVSDRRAPTPSAAAEIAVPNINEEMNSFVSLKRALDTSIKTYIQNKCNQLEIAKRMLEKNSPEILIVNGYSSIDNFKYVLDMRIANKIKIEKEKILRYNSILKSNSPINILNKGYSIISDEIGNNISNVDKLKEPDKVHITFKDGKVNAKIDILREGHHHHHH
MAHHHHHHMSEARQIQSMIDFIEREAQEKAEELEAAAQEEYDVEKMRLVEAEKAKIRAMAEKKLKQVDVDRRVARANYSKVQRMRVMEERARTMEKLHEQTRQKIVAMVNNPPQYKPMLVRLIHQSLMSIRTDAVVQCRKEDEAEVVRSIPELERWYKEKTGATISIQTSKTYLDTAEAWGGVVVKSTDGRVVCNNTLSYRTKTCFDEQLPTVRFHLFNPDAPL
SYYHHHHHHHEGVRTMEEECRVLSIQSHVIRGYVGNRAATFPLQVLGFEIDAVNSVQFSNHTGYAHWKGQVLNSDELQELYEGLRLNNMNKYDYVLTGYTRDKSFLAMVVDIVQELKQQNPRLVYVCDPVLGDKWDGEGSMYVPEDLLPVYKEKVVPLADIITPNQFEAELLSGRKIHSQEEALRVMDMLHSMGPDTVVITSSDLPSPQGSNYLIVLGSQRRRNPAGSVVMERIRMDIRKVDAVFVGTGDLFAAMLLAWTHKHPNNLKVACEKTVSTLHHVLQRTIQCAKAQAGEGVRPSPMQLELRMVQSKRDIEDPEIVVQATVL
MKKPIILRKRYIPDEVIDISGDELVFRSEDLLITKWNPIRKRPDISGGISFTFLKEGYKASKFFGPSGEFKYWYCDIIKVLYDEDEDKYTLVDLLLDVKIMPDGRVEVLDADELAEALKNNIISKEEACMCLSILDKILKMAYSGKFPPEICLKDY
MNSSPAGTPSPQPSRANGNINLGPSANPNAQPTDFDFLKVIGKGNYGKVLLAKRKSDGAFYAVKVLQKKSILKKKEQSHIMAERSVLLKNVRHPFLVGLRYSFQTPEKLYFVLDYVNGGELFFHLQRERRFLEPRARFYAAEVASAIGYLHSLNIIYRDLKPENILLDCQGHVVLTDFGLCKEGVEPEDTTSTFCGTPEYLAPEVLRKEPYDRAVDWWCLGAVLYEMLHGLPPFYSQDVSQMYENILHQPLQIPGGRTVAACDLLQSLLHKDQRQRLGSKADFLEIKNHVFFSPINWDDLYHKRLTPPFNPNVTGPADLKHFDPEFTQEAVSKSIGCTPDTVASSSGASSAFLGFSYAPEDDDILDC
MSLKILDISTEVKEIALKTPFITALRRVDAVEFVRVKVVCDDGSVAYGEAPATRAVTGEDIYSILSDIAFIQEELIGLTPKDAIVSLHLAEMGSSAKAALDMALFYLLPQTKEKQNLTLQTDITISLKDSDEMISDATQAIASGMNILKVKFGGDIKHAIEVTNRLSELDAKLIIDANQAWTQDDTMEYLEATLNVKLELIEQPVKADELHELRCITNYSHVPILADESVFTLEDAKAIIEYACADMINIKLMKCGGVTKAIEILEFARKNDIKCMLGSMLEGPISINAALNLAMEYSDVIAYIDLDSPLLYKEPSNELEFDFNGCEITRKEGHHHHHH
